Results as given in US20180193430, “COMPOSITIONS AND METHODS TO INHIBIT VIRAL REPLICATION” (published 2018).
Changes are numbered by the printed parent chain.

Tests used:
[1] = biological target: T1, RIG-I-N495D (Homo sapiens, UniProt O95786 SEQ:1-925, N495D); test: EMSA; affinity comparable to WT; 1.5 mM MgCl2, room temperature; settings: tags: Flag; purified from transfected HEK293T; label: 32P at 5' end of bottom strand; blunt 19 bp duplex
T1 sequence: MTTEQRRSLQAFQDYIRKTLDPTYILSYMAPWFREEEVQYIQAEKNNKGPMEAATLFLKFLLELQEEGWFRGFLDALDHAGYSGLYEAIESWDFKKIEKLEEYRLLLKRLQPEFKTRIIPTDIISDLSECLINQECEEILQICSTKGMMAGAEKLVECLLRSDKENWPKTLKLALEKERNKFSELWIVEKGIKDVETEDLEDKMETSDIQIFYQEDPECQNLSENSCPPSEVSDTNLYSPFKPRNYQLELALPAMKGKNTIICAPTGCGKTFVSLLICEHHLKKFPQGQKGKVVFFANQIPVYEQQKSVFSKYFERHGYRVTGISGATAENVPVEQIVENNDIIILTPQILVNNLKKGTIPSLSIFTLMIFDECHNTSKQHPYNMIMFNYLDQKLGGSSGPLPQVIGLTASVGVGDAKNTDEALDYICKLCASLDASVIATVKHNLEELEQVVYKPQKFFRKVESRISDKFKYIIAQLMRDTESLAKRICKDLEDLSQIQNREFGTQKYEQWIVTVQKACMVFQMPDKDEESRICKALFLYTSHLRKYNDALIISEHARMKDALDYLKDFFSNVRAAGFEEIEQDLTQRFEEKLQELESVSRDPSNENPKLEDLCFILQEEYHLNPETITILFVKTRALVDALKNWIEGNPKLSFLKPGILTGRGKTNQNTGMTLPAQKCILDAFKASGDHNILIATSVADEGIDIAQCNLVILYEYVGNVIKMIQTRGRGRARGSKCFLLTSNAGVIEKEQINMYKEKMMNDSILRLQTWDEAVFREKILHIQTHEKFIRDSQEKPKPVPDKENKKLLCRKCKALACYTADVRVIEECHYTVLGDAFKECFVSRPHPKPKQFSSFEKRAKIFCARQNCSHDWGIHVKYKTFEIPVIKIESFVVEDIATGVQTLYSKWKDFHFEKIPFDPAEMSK

[2] = biological target: T2, RIG-I-K270A (Homo sapiens, UniProt O95786 SEQ:1-925, K270A); test: EMSA; affinity similar to WT; 1.5 mM MgCl2, room temperature; settings: tags: Flag; purified from transfected HEK293T; label: 32P at 5' end of bottom strand; blunt 19 bp duplex
T2 sequence: T1 sequence with K270A, D495N

[3] = biological target: T3, RIG-I wild-type (Homo sapiens, UniProt O95786 SEQ:1-925); test: EMSA; two RIG-I:RNA complexes with increasing RIG-I; 20 mM Tris-HCl pH 8.0, 1.5 mM MgCl2, 1.5 mM DTT, room temperature; settings: tags: Flag; purified from transfected HEK293T; label: 32P at 5' end of bottom strand; blunt 19 bp duplex
T3 chain: T1 sequence with D495N

[4] = biological target: T3, RIG-I wild-type; test: EMSA; forms the slowly migrating complex with dsRNA lacking 5'-triphosphate; 1.5 mM MgCl2, room temperature; settings: tags: Flag; purified from transfected HEK293T; label: 32P at 5' end of bottom strand; blunt 19 bp duplex lacking 5'-triphosphate

B1: 5'-ppp-dsRNA 19mer (dsRNA)
RNA 1: GCAUGCGACCUCUGUUUGA
RNA 2: UCAAACAGAGGUCGCAUGC
modifications: 5'-triphosphate on top strand
B1: binds [1]; binds [2]; binds [3].

B2: control dsRNA 19mer (dsRNA)
RNA 1: GCAUGCGACCUCUGUUUGA
RNA 2: UCAAACAGAGGUCGCAUGC
B2: binds [4].
